Assay results: patent US20240182536A1

How the values were obtained:
[1] = target: T1, mouse IL-18 receptors on PathHunter U2OS mIL18-NF-kb reporter cells (mouse) (UniProt Q61098); experiment: cell-based or functional assay
T1 sequence (looked up) 1: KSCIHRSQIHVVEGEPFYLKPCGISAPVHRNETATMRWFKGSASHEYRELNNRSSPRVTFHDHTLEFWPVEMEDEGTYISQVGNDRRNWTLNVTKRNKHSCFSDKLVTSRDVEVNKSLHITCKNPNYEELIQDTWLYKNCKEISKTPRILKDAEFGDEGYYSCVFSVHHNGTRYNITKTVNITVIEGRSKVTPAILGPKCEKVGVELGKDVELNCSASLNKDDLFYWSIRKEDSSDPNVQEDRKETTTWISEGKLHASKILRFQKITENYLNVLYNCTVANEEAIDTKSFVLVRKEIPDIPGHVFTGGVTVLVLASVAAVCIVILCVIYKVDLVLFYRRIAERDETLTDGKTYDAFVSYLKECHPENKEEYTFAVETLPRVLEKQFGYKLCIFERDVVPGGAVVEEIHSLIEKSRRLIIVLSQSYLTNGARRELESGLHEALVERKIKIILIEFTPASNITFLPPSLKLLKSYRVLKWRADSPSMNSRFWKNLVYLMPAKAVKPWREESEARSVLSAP
T1 sequence (looked up) 2: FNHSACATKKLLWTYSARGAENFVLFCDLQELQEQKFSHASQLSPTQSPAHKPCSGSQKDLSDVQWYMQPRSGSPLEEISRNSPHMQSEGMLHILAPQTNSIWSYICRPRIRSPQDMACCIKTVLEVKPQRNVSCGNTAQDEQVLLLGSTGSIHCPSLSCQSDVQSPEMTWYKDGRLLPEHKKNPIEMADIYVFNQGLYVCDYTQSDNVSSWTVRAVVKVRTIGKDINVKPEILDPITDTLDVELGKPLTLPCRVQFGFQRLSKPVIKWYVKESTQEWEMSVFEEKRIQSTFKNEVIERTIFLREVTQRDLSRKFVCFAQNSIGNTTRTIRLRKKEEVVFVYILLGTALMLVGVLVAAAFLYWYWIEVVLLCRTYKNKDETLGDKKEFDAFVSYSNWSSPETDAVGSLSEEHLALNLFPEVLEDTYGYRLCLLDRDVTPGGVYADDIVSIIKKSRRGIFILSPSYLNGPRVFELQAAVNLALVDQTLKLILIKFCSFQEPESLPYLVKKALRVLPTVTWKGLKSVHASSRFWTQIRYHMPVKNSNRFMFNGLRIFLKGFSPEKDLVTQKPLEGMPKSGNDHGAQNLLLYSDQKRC

[2] = target: T2, mouse IL-18 binding protein (mouse) (UniProt Q9Z0M9); experiment: cell-based or functional assay
T2 sequence (looked up): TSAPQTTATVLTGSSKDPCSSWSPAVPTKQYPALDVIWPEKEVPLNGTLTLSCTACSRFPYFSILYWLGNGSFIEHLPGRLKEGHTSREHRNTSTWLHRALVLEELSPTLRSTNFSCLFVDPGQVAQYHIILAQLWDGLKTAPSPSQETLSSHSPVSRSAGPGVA

B1: WT mouse IL-18 (ligand, UniProt P70380 36-192, looked up)
chain: NFGRLHCTTAVIRNINDQVLFVDKRQPVFEDMTDIDQSASEPQTRLIIYMYKDSEVRGLAVTLSVKDSKMSTLSCKNKIISFEEMDPPENIDDIQSDLIFFQKRVPGHNKMEFESSLYEGHFLACQKEDDAFKLILKKKDENGDKSVMFTLTNLHQS
- mouse IL-18 reporter assay EC50, without mouse IL-18BP [1]: 0.61 pM
- mouse IL-18 reporter assay EC50, +Mouse IL-18BP 50 nM [2]: > 500 pM
